Laboratory results reported in US20080193426A1, “MIGRATION OF HEMATOPOIETIC STEM CELLS AND PROGENITOR CELLS TO THE LIVER” (YEDA RESEARCH AND DEVELOPMENT CO., LTD., priority 2001, published 2008).

Target: T1, CXCR4 (Homo sapiens, UniProt P61073)
T1 construct: homing of human CD34+ enriched MPB cells to the liver of NOD/SCID mice; endogenous in cells; host or cells: CD34+ enriched mobilized peripheral blood cells, thawed and incubated overnight with SLF, transplanted into non-irradiated NOD/SCID mice
T1 sequence (P61073 whole entry): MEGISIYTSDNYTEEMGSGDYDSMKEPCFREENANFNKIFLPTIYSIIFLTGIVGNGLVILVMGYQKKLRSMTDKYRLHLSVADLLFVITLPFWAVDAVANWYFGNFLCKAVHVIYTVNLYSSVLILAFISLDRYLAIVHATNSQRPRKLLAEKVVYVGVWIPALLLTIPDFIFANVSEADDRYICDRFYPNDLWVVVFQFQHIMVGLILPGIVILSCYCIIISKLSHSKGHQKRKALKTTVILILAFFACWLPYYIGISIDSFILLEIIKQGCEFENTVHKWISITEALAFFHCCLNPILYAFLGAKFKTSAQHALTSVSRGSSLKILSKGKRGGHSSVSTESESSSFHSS
Assay: Homing of human CD34+ enriched MPB cells to the liver of non-irradiated NOD/SCID mice, SDF-1 injected into the liver
Format: in vivo
Details: for homing of human stem cells and progenitor cells to the liver (in words): SDF-1 injected into the liver
Experimental: The following experiment was carried out in order to test whether homing of human CD34+ enriched MPB cells to the liver of NOD/SCID mice requires high concentrations of human SDF-1 in the liver.
Frozen […] mobilized peripheral blood (MPB) CD34+ cells were thawed, and incubated at 37° C. over night with 50 ng/ml SLF for recovery. In contrast to the experiment described in example 1, this experiment was carried out with non irradiated mice (not pre-conditioned) and also in non-irradiated mice in which human SDF-1 has been injected directly into the liver immediately prior transplantation. Briefly, non-irradiated NOD/SCID mice were anaesthetized and 1 microgram SDF-1 (in 50 microliter PBS) were injected into the right lobe of the liver. Next, treated and control mice were transplanted intravenously with 8×10^5 CD34+ MPB enriched cells. In one group, CD34+ cells were incubated for 30 min. (4° C.) with 10 micrograms of neutralizing anti-human CXCR4 mAb (12G5), and co-transplanted without washing. Four hours later, the injected lobe was harvested, a single cell suspension was prepared and introduced to flow cytometry analysis, using human specific anti CD34-FITC and anti CD38-PE mAb. Injection of SDF-1 to the liver creates a positive gradient in the liver and a negative gradient in the blood. Since this gradient is maintained for about 4 hours only, therefore the mice were sacrificed and homing was tested rapidly, four hours after cell injection.

Number of human cells in the liver per 1 × 10^6 total aquired cells (1 microgram SDF-1 into right liver lobe, 8×10^5 CD34+ MPB cells IV, 12G5 10 micrograms, four hours, flow cytometry): 38 | % (number of human cells in the liver, SDF-1 group = 100) (1 microgram SDF-1 into right liver lobe, four hours after cell injection): 100% | homing of human stem cells and progenitor cells to the liver (in words) (four hours after cell injection): improves significantly
Substance: SDF-1: human SDF-1, CXC chemokine and ligand of CXCR4, injected directly into the liver
homing of human stem cells and progenitor cells to the liver (in words) (four hours after cell injection, listed as human SDF-1): a considerable number of human stem cells and progenitor cells were observed
